Laboratory results from patent US7662384B2, “Use of anti-α5β1 antibodies to inhibit cancer cell proliferation” (Facet Biotech Corporation, priority 2004, dated 2010).

Key:
Experiment in all cases: FACS analysis of cancer cell line with IIA1
Format in all cases: binding
[1] = biological target: T1, α5β1 integrin on the cell surface of A2058 (Homo sapiens, UniProt P05556+P08648); settings: A2058 (melanoma); IIA1 10 μg/ml; background MFI ~5
T1 construct: endogenous in cells
Experimental: (§1) Cells were removed with 5 mM EDTA in Tris-HCl (pH 8.0) and blocked by centrifugation in Hank's balanced salt solution containing 3% heat inactivated FBS, 1% normal goat serum (Sigma) and 1% BSA at 4° C. for 5 minutes. Cells were incubated for 30-60 minutes at 4° C. with the mouse anti-α5β1 antibody, IIA1 (10 μg/ml) in FACS buffer (PBS containing 0.1% BSA). Excess monoclonal antibody was removed by centrifugation and cells were washed two times with FACS buffer prior to resuspending in PE-anti-mouse IgG (H+ L) antibody (Southern Biotech, 1:400 dilution) for 30-60 minutes at 4° C. After washing cells were re-suspended in FACS buffer containing propidium iodide (1 μg/ml). Mean fluorescence intensity (MFI) was measured on a FACSCalibur (Becton Dickinson). Background MFI was ˜5.

[2] = biological target: T2, α5β1 integrin on the cell surface of SN12C (Homo sapiens, UniProt P05556+P08648); settings: SN12C (renal); IIA1 10 μg/ml; background MFI ~5
T2 construct: endogenous in cells
Experimental: as §1

[3] = biological target: T3, α5β1 integrin on the cell surface of HCT-116 (Homo sapiens, UniProt P05556+P08648); settings: HCT-116 (colon); IIA1 10 μg/ml; background MFI ~5
T3 construct: endogenous in cells
Experimental: as §1

[4] = biological target: T4, α5β1 integrin on the cell surface of CHL-1 (Homo sapiens, UniProt P05556+P08648); settings: CHL-1 (melanoma); IIA1 10 μg/ml; background MFI ~5
T4 construct: endogenous in cells
Experimental: as §1

[5] = biological target: T5, α5β1 integrin on the cell surface of MIA PACA-2 (Homo sapiens, UniProt P05556+P08648); settings: MIA PACA-2 (pancreas); IIA1 10 μg/ml; background MFI ~5
T5 construct: endogenous in cells
Experimental: as §1

[6] = biological target: T6, α5β1 integrin on the cell surface of DU145 (Homo sapiens, UniProt P05556+P08648); settings: DU145 (prostate); IIA1 10 μg/ml; background MFI ~5
T6 construct: endogenous in cells
Experimental: as §1

[7] = biological target: T7, α5β1 integrin on the cell surface of NW231 (Homo sapiens, UniProt P05556+P08648); settings: NW231 (breast); IIA1 10 μg/ml; background MFI ~5
T7 construct: endogenous in cells
Experimental: as §1

[8] = biological target: T8, α5β1 integrin on the cell surface of A549 (Homo sapiens, UniProt P05556+P08648); settings: A549 (lung); IIA1 10 μg/ml; background MFI ~5
T8 construct: endogenous in cells
Experimental: as §1

[9] = biological target: T9, α5β1 integrin on the cell surface of C32 (Homo sapiens, UniProt P05556+P08648); settings: C32 (melanoma); IIA1 10 μg/ml; background MFI ~5
T9 construct: endogenous in cells
Experimental: as §1

[10] = biological target: T10, α5β1 integrin on the cell surface of UACC-62 (Homo sapiens, UniProt P05556+P08648); settings: UACC-62 (melanoma); IIA1 10 μg/ml; background MFI ~5
T10 construct: endogenous in cells
Experimental: as §1

[11] = biological target: T11, α5β1 integrin on the cell surface of A498 (Homo sapiens, UniProt P05556+P08648); settings: A498 (renal); IIA1 10 μg/ml; background MFI ~5
T11 construct: endogenous in cells
Experimental: as §1

[12] = biological target: T12, α5β1 integrin on the cell surface of HT1080 (Homo sapiens, UniProt P05556+P08648); settings: HT1080 (fibrosarcoma); IIA1 10 μg/ml; background MFI ~5
T12 construct: endogenous in cells
Experimental: as §1

[13] = biological target: T13, α5β1 integrin on the cell surface of COLO 357 (Homo sapiens, UniProt P05556+P08648); settings: COLO 357 (pancreas); IIA1 10 μg/ml; background MFI ~5
T13 construct: endogenous in cells
Experimental: as §1

[14] = biological target: T14, α5β1 integrin on the cell surface of H460 (Homo sapiens, UniProt P05556+P08648); settings: H460 (lung); IIA1 10 μg/ml; background MFI ~5
T14 construct: endogenous in cells
Experimental: as §1

[15] = biological target: T15, α5β1 integrin on the cell surface of TK-10 (Homo sapiens, UniProt P05556+P08648); settings: TK-10 (renal); IIA1 10 μg/ml; background MFI ~5
T15 construct: endogenous in cells
Experimental: as §1

[16] = biological target: T16, α5β1 integrin on the cell surface of A375 (Homo sapiens, UniProt P05556+P08648); settings: A375 (melanoma); IIA1 10 μg/ml; background MFI ~5
T16 construct: endogenous in cells
Experimental: as §1

[17] = biological target: T17, α5β1 integrin on the cell surface of 786-0 (Homo sapiens, UniProt P05556+P08648); settings: 786-0 (renal); IIA1 10 μg/ml; background MFI ~5
T17 construct: endogenous in cells
Experimental: as §1

[18] = biological target: T18, α5β1 integrin on the cell surface of ES-2 (Homo sapiens, UniProt P05556+P08648); settings: ES-2 (ovarian); IIA1 10 μg/ml; background MFI ~5
T18 construct: endogenous in cells
Experimental: as §1

[19] = biological target: T19, α5β1 integrin on the cell surface of LOX (Homo sapiens, UniProt P05556+P08648); settings: LOX (melanoma); IIA1 10 μg/ml; background MFI ~5
T19 construct: endogenous in cells
Experimental: as §1

[20] = biological target: T20, α5β1 integrin on the cell surface of HT144 (Homo sapiens, UniProt P05556+P08648); settings: HT144 (melanoma); IIA1 10 μg/ml; background MFI ~5
T20 construct: endogenous in cells
Experimental: as §1

[21] = biological target: T21, α5β1 integrin on the cell surface of HT1376 (Homo sapiens, UniProt P05556+P08648); settings: HT1376 (bladder); IIA1 10 μg/ml; background MFI ~5
T21 construct: endogenous in cells
Experimental: as §1

[22] = biological target: T22, α5β1 integrin on the cell surface of EKVX (Homo sapiens, UniProt P05556+P08648); settings: EKVX (lung); IIA1 10 μg/ml; background MFI ~5
T22 construct: endogenous in cells
Experimental: as §1

T22 sequence (P08648 42-1049): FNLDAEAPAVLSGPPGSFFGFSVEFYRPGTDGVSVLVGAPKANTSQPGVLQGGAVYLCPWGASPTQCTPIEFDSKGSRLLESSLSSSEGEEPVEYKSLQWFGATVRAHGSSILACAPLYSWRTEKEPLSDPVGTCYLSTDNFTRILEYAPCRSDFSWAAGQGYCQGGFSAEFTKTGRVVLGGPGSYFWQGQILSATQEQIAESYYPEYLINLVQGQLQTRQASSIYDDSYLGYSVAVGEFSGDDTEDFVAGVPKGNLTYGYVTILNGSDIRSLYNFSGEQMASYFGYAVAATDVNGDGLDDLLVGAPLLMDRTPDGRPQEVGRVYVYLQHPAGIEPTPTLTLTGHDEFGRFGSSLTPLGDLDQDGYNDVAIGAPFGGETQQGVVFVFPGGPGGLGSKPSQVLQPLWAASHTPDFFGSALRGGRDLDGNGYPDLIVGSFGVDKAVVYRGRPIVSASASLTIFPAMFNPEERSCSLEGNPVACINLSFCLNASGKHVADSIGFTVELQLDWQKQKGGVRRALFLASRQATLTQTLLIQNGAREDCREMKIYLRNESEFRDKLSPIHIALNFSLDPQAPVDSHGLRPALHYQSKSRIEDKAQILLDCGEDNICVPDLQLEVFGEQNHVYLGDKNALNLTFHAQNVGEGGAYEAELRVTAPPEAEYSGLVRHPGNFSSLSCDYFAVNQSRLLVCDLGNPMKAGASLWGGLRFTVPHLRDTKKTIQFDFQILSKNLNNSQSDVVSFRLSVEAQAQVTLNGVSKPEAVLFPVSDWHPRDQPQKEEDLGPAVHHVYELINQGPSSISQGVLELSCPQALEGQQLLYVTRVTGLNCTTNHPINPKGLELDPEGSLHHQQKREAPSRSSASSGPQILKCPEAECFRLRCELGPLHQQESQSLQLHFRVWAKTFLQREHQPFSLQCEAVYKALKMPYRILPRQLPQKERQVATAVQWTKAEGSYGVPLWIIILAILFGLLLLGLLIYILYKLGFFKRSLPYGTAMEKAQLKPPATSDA
T22 sequence (P08648 895-1049 limits assumed): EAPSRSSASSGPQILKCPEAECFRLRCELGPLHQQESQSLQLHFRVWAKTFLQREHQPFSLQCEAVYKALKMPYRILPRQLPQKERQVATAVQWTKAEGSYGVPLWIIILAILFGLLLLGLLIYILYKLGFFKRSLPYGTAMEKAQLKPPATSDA
T22 sequence (P05556 21-798): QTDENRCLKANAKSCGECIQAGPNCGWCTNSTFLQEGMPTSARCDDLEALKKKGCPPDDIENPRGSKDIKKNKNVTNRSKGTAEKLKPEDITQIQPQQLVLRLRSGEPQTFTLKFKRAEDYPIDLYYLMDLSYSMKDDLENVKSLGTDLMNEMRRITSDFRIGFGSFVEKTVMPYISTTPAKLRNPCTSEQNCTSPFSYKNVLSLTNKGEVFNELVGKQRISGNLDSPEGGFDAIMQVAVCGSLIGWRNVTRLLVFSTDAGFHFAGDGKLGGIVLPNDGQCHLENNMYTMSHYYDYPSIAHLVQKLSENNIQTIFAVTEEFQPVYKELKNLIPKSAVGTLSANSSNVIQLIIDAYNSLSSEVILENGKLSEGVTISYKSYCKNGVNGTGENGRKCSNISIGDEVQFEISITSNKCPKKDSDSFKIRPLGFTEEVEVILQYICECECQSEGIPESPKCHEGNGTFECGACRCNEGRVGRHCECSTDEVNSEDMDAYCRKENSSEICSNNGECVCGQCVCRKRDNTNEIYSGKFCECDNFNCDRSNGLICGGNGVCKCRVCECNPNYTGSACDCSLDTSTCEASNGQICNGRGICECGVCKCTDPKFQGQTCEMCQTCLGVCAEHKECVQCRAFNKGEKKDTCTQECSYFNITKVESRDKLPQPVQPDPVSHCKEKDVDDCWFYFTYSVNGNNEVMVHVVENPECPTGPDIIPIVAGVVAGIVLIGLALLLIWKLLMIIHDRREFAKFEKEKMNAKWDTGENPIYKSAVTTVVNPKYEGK
T10 sequence (P08648 42-894 limits assumed): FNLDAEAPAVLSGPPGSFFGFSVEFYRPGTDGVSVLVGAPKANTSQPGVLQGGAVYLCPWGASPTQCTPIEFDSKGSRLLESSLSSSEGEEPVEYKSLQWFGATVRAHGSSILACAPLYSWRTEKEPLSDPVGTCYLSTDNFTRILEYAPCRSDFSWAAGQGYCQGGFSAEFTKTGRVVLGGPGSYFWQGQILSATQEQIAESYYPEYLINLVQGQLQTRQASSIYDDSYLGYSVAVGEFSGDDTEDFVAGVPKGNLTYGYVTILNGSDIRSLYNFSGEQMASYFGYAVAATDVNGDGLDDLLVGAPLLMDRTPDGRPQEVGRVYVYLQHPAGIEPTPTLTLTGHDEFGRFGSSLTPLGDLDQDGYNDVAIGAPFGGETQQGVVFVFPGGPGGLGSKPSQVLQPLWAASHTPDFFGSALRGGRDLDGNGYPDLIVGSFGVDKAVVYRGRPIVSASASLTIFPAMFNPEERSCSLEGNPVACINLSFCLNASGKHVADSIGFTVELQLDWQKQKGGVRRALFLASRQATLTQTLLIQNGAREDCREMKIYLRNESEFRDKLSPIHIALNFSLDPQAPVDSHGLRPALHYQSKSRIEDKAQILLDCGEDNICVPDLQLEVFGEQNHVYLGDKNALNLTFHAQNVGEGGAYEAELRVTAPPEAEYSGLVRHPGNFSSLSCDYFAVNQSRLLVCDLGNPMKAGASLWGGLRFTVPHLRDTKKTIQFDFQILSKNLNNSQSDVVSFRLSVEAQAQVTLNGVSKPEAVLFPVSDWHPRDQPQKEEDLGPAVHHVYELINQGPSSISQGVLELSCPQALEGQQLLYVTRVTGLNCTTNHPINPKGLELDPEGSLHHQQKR
T10 sequence (P08648 895-1049 limits assumed): as the sequence (P08648 895-1049 limits assumed) above
T10 sequence (P05556 21-798): as the sequence (P05556 21-798) above

B1: IIA1: parent mouse IgG1 class anti-α5β1 antibody shown to inhibit α5β1 integrin binding to fibronectin (antibody, V domains shown)
VH: MAVLGLLLCLVTFPSCVLSQVQLKESGPGLVAPSQSLSITCTISGFSLTDYGVHWVRQPPGKGLEWLVVIWSDGSSTYNSALKSRMTIRKDNSKSQVFLIMNSLQTDDSAMYYCARHGTYYGMTTTGDALDYWGQGTSVTVSS
VL: MDFQVQIFSFLLISASVIMSRGQIVLTQSPAIMSASLGERVTMTCTASSSVSSNYLHWYQQKPGSAPNLWIYSTSNLASGVPARFSGSGSGTSYSLTISSMEAEDAATYYCHQYLRSPPTFGGGTKLEIK
modifications: mus muscalus
In the case of B1, the “α5β1 Surface Expression (MFI)” value [1] is reported as 36.2 MFI, the “α5β1 Surface Expression (MFI)” value [2] is reported as 129.1 MFI and the “α5β1 Surface Expression (MFI)” value [3] is reported as 42.5 MFI. The “α5β1 Surface Expression (MFI)” value [4] was 6.8 MFI, the “α5β1 Surface Expression (MFI)” value [5] was 61.9 MFI and the “α5β1 Surface Expression (MFI)” value [6] was 87.5 MFI. For the same molecule, the “α5β1 Surface Expression (MFI)” value [7] was 132.2 MFI, the “α5β1 Surface Expression (MFI)” value [8] was 71.41 MFI and the “α5β1 Surface Expression (MFI)” value [9] was 5.7 MFI. The “α5β1 Surface Expression (MFI)” value [10] was 88.5 MFI, the “α5β1 Surface Expression (MFI)” value [11] was 67.1 MFI and the “α5β1 Surface Expression (MFI)” value [12] was 421.7 MFI. The “α5β1 Surface Expression (MFI)” value [13] was 7.8 MFI, the “α5β1 Surface Expression (MFI)” value [14] was 87.5 MFI and the “α5β1 Surface Expression (MFI)” value [15] was 36.6 MFI. The “α5β1 Surface Expression (MFI)” value [16] was 156.1 MFI, the “α5β1 Surface Expression (MFI)” value [17] was 144.4 MFI and the “α5β1 Surface Expression (MFI)” value [18] was 132.8 MFI. For the same molecule, the “α5β1 Surface Expression (MFI)” value [19] was 261.6 MFI, the “α5β1 Surface Expression (MFI)” value [20] was 102.1 MFI and the “α5β1 Surface Expression (MFI)” value [21] was 111.9 MFI. For the same molecule, the “α5β1 Surface Expression (MFI)” value [22] was 36.7 MFI.
